Measurements from article doi:10.1101/2023.12.12.570754.

Assays:
[1] = biological target: Ku70-Ku80 heterodimer deleted of its C-terminal regions (Ku70 1-544, Ku80 1-551) (human) (UniProt P12956); assay: ITC
[2] = biological target: full-length human Ku heterodimer (Ku70 1-609, Ku80 1-732) (human) (UniProt P12956); assay: ITC

- Kd [1]: 840 nM
- fold weaker affinity than with the 42 bp DNA [1]: 7 fold
- Kd [2]: 1180 nM
Substance: RAG2c peptide, containing motifs 1 and 2 of the RAG2 C-terminus (RAG2-KBM)
